Source: publication PMC7986808

B1: MtCHS probe (dsDNA)
DNA 1: TCAGACTCACATTAAAACTACAGTCTGTTGAGTTGTGCTATTATATTAAGAGAGACAAT
DNA 2: ATTGTCTCTCTTAATATAATAGCACAACTCAACAGACTGTAGTTTTAATGTGAGTCTGA
B2: MtANS probe (dsDNA)
DNA 1: CTATATATAAGAAGCTAGCTGCATACAACCATTTATTCACGTTTTGTGCTGTGCAATCA
DNA 2: TGATTGCACAGCACAAAACGTGAATAAATGGTTGTATGCAGCTAGCTTCTTATATATAG

Target: T1, RH2, His-TF-RH2 (Medicago truncatula, UniProt A0A072TSA4 1-207)
T1 sequence: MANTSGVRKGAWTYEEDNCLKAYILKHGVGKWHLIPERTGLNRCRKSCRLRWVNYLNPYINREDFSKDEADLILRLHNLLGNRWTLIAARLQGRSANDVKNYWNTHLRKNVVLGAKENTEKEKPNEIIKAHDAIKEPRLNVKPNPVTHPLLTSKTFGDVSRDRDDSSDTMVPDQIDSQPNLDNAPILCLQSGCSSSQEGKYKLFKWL
Test: EMSA

Binder	binding result
B1	binds
B2	binds
